From patent US20120171699A1 (Merck KGaA, published 2012)
Values belong to the molecule of their own block, whether it stands above or below them.

What was measured:
integrin αvβ5 on cells [1] = target: T1, integrin αvβ5 on cells (human, UniProt P06756 31-1048; P18084 24-799); assay: live cell flow cytometry on M24Met, 10 µg/ml antibody; relative to second layer alone
T1 construct: whole, on cells; Endogenous integrin of live cells (FACS) or of FFPE cells and xenografts (IHC)

integrin αvβ5 on cells [2] = target: T1, integrin αvβ5 on cells; assay: live cell flow cytometry on HUVEC, 10 µg/ml antibody; relative to second layer alone
integrin αvβ5 on cells [3] = target: T1, integrin αvβ5 on cells; assay: live cell flow cytometry on M21, 10 µg/ml antibody; relative to second layer alone
integrin αvβ5 on cells [4] = target: T1, integrin αvβ5 on cells; assay: live cell flow cytometry on A549, 10 µg/ml antibody; relative to second layer alone
integrin αvβ5 on cells [5] = target: T1, integrin αvβ5 on cells; assay: live cell flow cytometry on HT-29, 10 µg/ml antibody; relative to second layer alone
[6] = target: integrin β1 chain on cells (UniProt P05556); assay: live cell flow cytometry on M24Met, 10 µg/ml antibody; relative to second layer alone
Sequence of integrin β1 chain on cells (P05556 21-798 limits assumed): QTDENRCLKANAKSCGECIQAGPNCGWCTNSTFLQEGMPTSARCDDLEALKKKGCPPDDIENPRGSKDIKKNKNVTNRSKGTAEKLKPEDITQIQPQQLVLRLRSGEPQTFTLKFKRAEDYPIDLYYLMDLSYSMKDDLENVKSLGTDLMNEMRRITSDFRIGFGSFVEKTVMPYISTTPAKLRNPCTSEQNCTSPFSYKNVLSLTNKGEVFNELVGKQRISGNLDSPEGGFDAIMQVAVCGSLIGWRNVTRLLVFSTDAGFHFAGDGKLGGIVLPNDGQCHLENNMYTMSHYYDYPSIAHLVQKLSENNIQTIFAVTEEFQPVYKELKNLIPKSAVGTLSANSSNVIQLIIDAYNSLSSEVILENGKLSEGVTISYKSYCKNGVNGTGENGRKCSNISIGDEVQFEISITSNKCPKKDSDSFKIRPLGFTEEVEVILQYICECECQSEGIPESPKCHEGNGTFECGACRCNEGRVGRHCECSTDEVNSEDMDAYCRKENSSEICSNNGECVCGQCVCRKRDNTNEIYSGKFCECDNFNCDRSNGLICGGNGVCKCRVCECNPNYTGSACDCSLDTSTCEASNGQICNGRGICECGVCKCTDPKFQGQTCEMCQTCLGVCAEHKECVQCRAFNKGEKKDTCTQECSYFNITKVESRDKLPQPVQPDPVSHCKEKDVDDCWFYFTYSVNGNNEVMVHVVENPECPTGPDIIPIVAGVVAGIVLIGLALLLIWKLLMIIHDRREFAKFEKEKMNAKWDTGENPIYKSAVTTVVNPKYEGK

[7] = target: integrin β1 chain on cells (UniProt P05556); assay: live cell flow cytometry on A549, 10 µg/ml antibody; relative to second layer alone
[8] = target: integrin β1 chain on cells (UniProt P05556); assay: live cell flow cytometry on HT-29, 10 µg/ml antibody; relative to second layer alone
[9] = target: integrin β1 chain on cells (UniProt P05556); assay: live cell flow cytometry on M21-Gpiib, 10 µg/ml antibody; relative to second layer alone
[10] = target: integrin β1 chain on cells (UniProt P05556); assay: live cell flow cytometry on M21-L, 10 µg/ml antibody; relative to second layer alone
[11] = target: integrin β1 chain on cells (UniProt P05556); assay: live cell flow cytometry on M21, 10 µg/ml antibody; relative to second layer alone
[12] = target: integrin β1 chain on cells (UniProt P05556); assay: live cell flow cytometry on HUVEC, 10 µg/ml antibody; relative to second layer alone
integrin αvβ3 on cells [13] = target: T2, integrin αvβ3 on cells (human, UniProt P06756 31-1048; P05106 27-788); assay: live cell flow cytometry on M24Met, 10 µg/ml antibody; relative to second layer alone
T2 construct: whole, on cells; Endogenous integrin of live cells (FACS) or of formalin fixed paraffin embedded cells and xenografts (IHC); the cell line is named under assay; also called αvβ3 complex
Experimental: (§1) Cells in log growth were harvested using trypsin (0.5 μg/ml)/EDTA (0.2 μg/ml), washed in FACS buffer (PBS plus 0.9 mM CaCl₂; 0.5 mM MgCl₂; 0.5% w/v BSA), and incubated with anti-integrin antibodies (60 min; 4° C.; 10 μg/ml in FACS buffer). […] Cells were analyzed on a FACScan (Becton-Dickinson) and the mean intensity fluorescence (MIF) was normalized to the MIF of the negative control (cells stained with PI and secondary labeled antibody, without primary antibody).
(§2) The RabMabs were assessed in FACS compared to standard well characterized murine monoclonal antibodies.

integrin αvβ3 on cells [14] = target: T2, integrin αvβ3 on cells; assay: live cell flow cytometry on HUVEC, 10 µg/ml antibody; relative to second layer alone
Experimental: as §1, §2

integrin αvβ3 on cells [15] = target: T2, integrin αvβ3 on cells; assay: live cell flow cytometry on M21, 10 µg/ml antibody; relative to second layer alone
Experimental: as §1, §2

[16] = target: T3, full length human gpiibiiia purified from platelets (human, UniProt P08514 32-1039; P05106 27-788); assay: ELISA, integrin coated at 1 µg/ml, antibody serially diluted
T3 construct: mature; Extracted from outdated human platelets with octylglucoside; also called intact αiibβ3; full length purified platelet gpiibiiia
Experimental: (§3) Recombinant integrins (1 μg/ml) were coated on microtiter plates by adsorption (4° C.; 16 h) from coating buffer (150 mM NaCl; 1 mM CaCl₂; 1 mM MgCl₂; 10 μM MnCl₂; 50 mM Tris-Cl; pH 7.5). The plates were washed (wash buffer: 0.5% BSA; 0.05% Tween 20 in PBS), blocked (1 h; 4° C.; 5% BSA in PBS), and incubated with primary antibodies serially diluted in wash buffer (1 h; 37° C.). After washing, secondary detection antibody (goat-anti-rabbit HRP; 1:5000) was added (1 h; 37° C.), followed by washing and detection using tetramethyl-benzidine (100 μg/ml) in citrate-phosphate buffer (pH 5.0), development with sulphuric acid, and reading against a reagent blank at 450 nm.

[17] = target: T4, recombinant human integrin αvβ3 extracellular domain (DTM-αvβ3) (human, UniProt P06756 31-992); assay: as above
T4 construct: extracellular domain; Heterodimer made in High Five insect cells with baculovirus; also called Human αvβ3 ECD
Experimental: as §3

[18] = target: T5, integrin αiibβ3 on M21-gpiib melanoma cells (UniProt P08514 32-1039; P05106 27-788); assay: live cell flow cytometry on M21-Gpiib, 10 µg/ml antibody; relative to second layer alone
T5 construct: whole, on cells
Experimental: as §1, §2

[19] = target: T5, integrin αiibβ3 on M21-gpiib melanoma …; assay: live cell flow cytometry on M21-gpiib melanoma cells
Experimental: as §1, §2

[20] = target: T6, integrin αv chain on cells (human, UniProt P06756 31-1048); assay: live cell flow cytometry on M24Met, 10 µg/ml antibody; relative to second layer alone
T6 construct: whole, on cells; Endogenous αv of live cells (FACS) or FFPE cells and xenografts (IHC); also called Human αv; αv-integrin
Experimental: as §1, §2

[21] = target: T6, integrin αv chain on cells; assay: live cell flow cytometry on HUVEC, 10 µg/ml antibody; relative to second layer alone
Experimental: as §1, §2

[22] = target: T6, integrin αv chain on cells; assay: live cell flow cytometry on M21, 10 µg/ml antibody; relative to second layer alone
Experimental: as §1, §2

[23] = target: T7, recombinant human integrin αvβ5 extracellular domain (DTM-αvβ5) (human, UniProt P06756 31-992); assay: ELISA, integrin coated at 1 µg/ml, antibody serially diluted
T7 construct: extracellular domain; Heterodimer made in High Five insect cells; also called Human αvβ5 ECD
Experimental: as §3

[24] = target: T8, recombinant human integrin αvβ8 extracellular domain (DTM-αvβ8) (human, UniProt P06756 31-992); assay: as above
T8 construct: extracellular domain; Heterodimer made in High Five insect cells; also called Human αvβ8 ECD

[25] = target: recombinant human integrin αvβ6 extracellular domain (DTM-αvβ6) (human) (UniProt P18564); assay: as above
[26] = target: T7, recombinant human integrin αvβ5 …; assay: ELISA, hybridoma supernatants on the recombinant αvβ5 extracellular domain (FIG. 10)
[27] = target: T4, recombinant human integrin αvβ3 …; assay: ELISA, hybridoma supernatants on recombinant αvβ3 against αvβ5 extracellular domains (FIG. 10)
[28] = target: T3, full length human gpiibiiia purified …; assay: ELISA, integrin coated at 1 µg/ml
Experimental: as §3

[29] = target: T4, recombinant human integrin αvβ3 …; assay: ELISA, integrin coated at 1 µg/ml
Experimental: as §3

Molecule: P1F6 (antibody)
rMIF (integrin αvβ5 on cells [1]): 3.8
rMIF (integrin αvβ5 on cells [2]): 2.7
rMIF (integrin αvβ5 on cells [3]): 3.8
rMIF (integrin αvβ5 on cells [4]): 3.6
rMIF (integrin αvβ5 on cells [5]): 3.2

Molecule: P4C10 (antibody)
rMIF [6]: 14
rMIF [7]: 7.5
rMIF [8]: 14.5
rMIF [9]: 10.8
rMIF [10]: 12.1
rMIF [11]: 7.2
rMIF [12]: 38.9

B5: 17E6 (antibody, V domains shown)
VH: QVQLQQSGAELAEPGASVKMSCKASGYTFSSFWMHWVKQRPGQGLEWIGYINPRSGYTECNEIFRDKATMTADTSSSTAYMQLSGLTSEDSAVYYCASFLGRGAMDYWGQGTSVTVSS
VL: DIQMTQTTSSLSASLGDRVIISCRASQDISNYLSWYQQKPDGTVKLLIFYTSKLHSGVPSRFSGSGSGTDYSLTISNLDQEDIATYFCQQGNTFPYTFGGGTKVEMR
rMIF [20]: 7.8
rMIF [22]: 9.3

Further lines, results first:

rMIF (integrin αvβ3 on cells [13]): 8.1
rMIF (integrin αvβ3 on cells [14]): 12.4
rMIF (integrin αvβ3 on cells [15]): 17.6
IC50 [16]: 0.85 ng/mL
IC50 [17]: 1.4 ng/mL
rMIF [18]: 56
B1: EM22703 (antibody, V domains shown)
VH: QSVKESEGGLFKPTDTLILTCTVSGFSLSSYGVSWVRQAPGNGLEYIGSISTTGITYYASWAKSRSTITRNTNLYTVTLKMTGLTAADTATYFCARGFPGHLRKPSDIWGPGTLVTVSA
VL: AQVLTQTPSSVSAAVGGTVSISCQSSESVYADIALSWFQQKPGQPPKLLIYGASTLASGVPSRFSGSGSGTEFTLTISDVQCDAAATYYCAGDYGAGTEPNLFGGGTEVVVSG
notes: Rabbit monoclonal; Hybridoma and recombinant forms are kept as one molecule

binding result [19]: no binding (tested: 10 µg/ml)
rMIF [20]: 2.5
rMIF [21]: 28.8
rMIF [22]: 1.3
IC50 [23]: 5.6 ng/mL
IC50 [24]: 4.1 ng/mL
IC50 [17]: 4.7 ng/mL
rMIF [18]: 1
IC50 [25]: 4.9 ng/mL
B2: EM01309 (antibody, V domains shown)
VH: QSVEESGGRLVTPGTSLTLTCTVSGIDLTSNSLSWVRQAPGKGLEWIGAISSRATTYFAAWAKGRFTISRTSTTVDLRITSLTASDTATYFCGKFNLWGQGTLVTVSS
VL: AQVLTQTPSSVSAAVGGTVTINCQASQSVASNNALAWFQQKPGQPPKLLIYYASTLASGVPSRFKGSGSGTQFTLTISDLECADAATYYCLGGYDCRGTDCNVFGGGTEVVVKG
notes: Rabbit IgG monoclonal; Hybridoma and recombinant forms are kept as one molecule; also called E3875-013-9; E3875-13-9

rMIF (integrin αvβ3 on cells [13]): 4.9
rMIF (integrin αvβ3 on cells [14]): 10.7
rMIF (integrin αvβ3 on cells [15]): 9.1
B3: LM609 (antibody, V domains shown)
VH: EVQLVESGGGLVKPGRSLRLSCAASGFAFSSYDMSWVRQIPEKRLEWVAKVSSGGGSTYYLDTVQGRFTISRDNAKNTLYLQMSSLNSEDTAMYYCARHNYGSFAYWGQGTLVTVSA
VL: DIVLTQSPATLSVTPGDSVSLSCQASQSISNHLHWYQQKSHESPRLLIKYRSQSISGIPSRFSGSGSGTDFALSINSVETEDFGMYFCQQSGSWPHTFGGGTKLEIK

EC50 [26]: 0.05 nM
rMIF (integrin αvβ5 on cells [1]): 40.1
rMIF (integrin αvβ5 on cells [2]): 33.9
rMIF (integrin αvβ5 on cells [3]): 7.2
IC50 [16]: ~400 ng/mL
IC50 [23]: 5.6 ng/mL
IC50 [17]: ~450 ng/mL
factor in apparent Kd, αvβ5 over αvβ3 [27]: > 100 fold
rMIF [18]: 1.9
cross-reactivity, fold in IC50 against the immunogen [28]: ~100 fold
cross-reactivity, fold in IC50 against the immunogen [29]: ~100 fold
B4: EM09902 (antibody, V domains shown)
VH: QEQLEESGGGLVQPEGSLTLTCTVSGFPLRNVWISWVRQAPGKGLEWIGCIYTGRDWPYYASWAKGRFTISKSSSTTVTLQMTSLTATDTATYFCARIVYGGAGYRLWGPGTLVTVSS
VL: ALVMTQTPPSVEAAVGGTVTINCQASQDIGSDLAWYQQKPGQPPKLLIYSASSLASGVPSRFKASGSGTQFTLTISDVQCDDAATYSCAGYKSYSDDGHGFGGGTEVVVKG
notes: Rabbit monoclonal; Hybridoma and recombinant forms are kept as one molecule; also called E3536-99-1; E3536-99-2
